Experiment [1] deals with T1, CD33/Siglec 3 chimeric fusion protein (ectodomain of CD33 fused to the Fc portion of human IgG1, with a … (Homo sapiens; human, UniProt P20138 18-259).
T1 construct: extracellular domain; also called CD33-fusion; CD33-IgG; not shown: Fc region of human IgG1 (human Fc gamma) from the expression vector; C-terminal recognition site for E. coli biotin ligase
The experiment is described as follows: immunoprecipitation of BM cell lysates from MDS patients with CD33-fusion, then mass spectrometry (FIG. 3A). The source says: Therefore, to identify potential ligand(s) for this receptor, a chimeric fusion protein with the ectodomain of CD33 and the Fe portion of human IgG (here on referred to as CD33-fusion) was produced. BM cell lysates from MDS patients were immunoprecipitated with the CD33-fusion followed by high throughput mass-spectrometric analysis on associated peptides. S100A9, an inflammatory signaling molecule known to activate MDSC, was among the most prominent protein bands identified (FIG. 3A). To confirm the specificity of the binding of this DAMP to CD33 both S100A8 and S100A9 transfectants were prepared in the rhabdomyosarcoma cell line SJCRH30, which lacks detectable expression of endogenous CD33, S100A8 or S100A9. […] To validate clinically the ligand specificity in MDS patients, the pull-down was compared with CD33-fusion from healthy PBMC and BM as well as MDS patients. As expected, the highest amount of S100A9 was precipitated from the BM of MDS patient specimens (FIG. 3F). Next, to understand the kinetics of S100A9 and CD33 interactions, SJCRH30 cells were transfected with either vector or CD33 and incubated with recombinant human (rh) S100A9 tagged with DDK ([…] epitope, same epitope as Flag).

Experiment [2] has as its target T2, CD33 (Siglec 3) expressed in cells (human, UniProt P20138 18-364).
T2 construct: whole, on cells; In the co-immunoprecipitations it stood in cell lysates; also called SJCRH30-CD33 cells; CD33 on MDS-MDSC
Description: reverse immunoprecipitation: S100A9 IP from CD33/S100A9 co-transfected SJCRH30 lysate, blotted for CD33 (FIG. 3E).

The target in experiment [3] is T1, CD33/Siglec 3 chimeric fusion protein …. The experiment is described as follows: immunofluorescence staining of transfected SJCRH30 cells with CD33-fusion and anti-human IgG1-APC (FIG. 3B). As to the method:
Immunofluorescence was detected using a Zeiss automated upright fluorescence microscope and images captured by a Nikon camera with the Capture Program AxioVision. Detailed methods for immuno-staining on S100A9 transfected SJCRH30 cells have been published previously (Chen, X., et al. 2008. Blood 113(14):3226-34). Specifically, SJCRH30 cells, which lack detectable expression levels of both CD33 and S100A9, were transfected with either S100A9 or S100A8 (negative control) for 48-72 hours. After incubation with CD33-fusion for 30 min (2 μg/ml), 1×10⁴ cells were cytospinned onto slides and then stained with a secondary anti-human IgG1-APC before analysis by immunofluorescence microscopy. Similarly, SJCRH30 cells, stable-transfected with CD33, were incubated with rhS100A9 tagged with DDK for various time points and stained by the same methodology before analysis.
S100A9 is a native ligand for CD33. […] Therefore, to identify potential ligand(s) for this receptor, a chimeric fusion protein with the ectodomain of CD33 and the Fe portion of human IgG (here on referred to as CD33-fusion) was produced. BM cell lysates from MDS patients were immunoprecipitated with the CD33-fusion followed by high throughput mass-spectrometric analysis on associated peptides. S100A9, an inflammatory signaling molecule known to activate MDSC, was among the most prominent protein bands identified (FIG. 3A). […]

B1: S100A9 (ligand, human, UniProt P06702 1-114, looked up)
chain: MTCKMSQLERNIETIINTFHQYSVKLGHPDTLNQGEFKELVRKDLQNFLKKENKNEKVIEHIMEDLDTNADKQLSFEEFIMLMARLTWASHEKMHEGDEGPGHHHKPGLGEGTP
notes: One entry covers both the endogenous protein of human specimens and the protein expressed from transfected cDNA; also called MRP-14; calgranulin-B
Regarding B1, the binding result in experiment [1] and in experiment [2] was “binds” in each case.

B2: S100A8 (ligand, UniProt P05109 1-93, looked up)
chain: MLTELEKALNSIIDVYHKYSLIKGNFHAVYRDDLKKLLETECPQYIRKKGADVWFKELDINTDGAVNFQEFLILVIKMGVAAHKKSHEESHKE
notes: also called MRP-8; calgranulin A
Consider B2, for which the binding result in experiment [3] is given as “no binding (tested: 2 µg/ml CD33-fusion for 30 min)”.

(Values after patent US20230348555A1 (H LEE MOFFITT CANCER CENTER AND RESEARCH INSTITUTE, published 2023).)
